Where no end group is shown, it is not given here.

The target of test [1] is T1, KTN1(991–1357) (human, UniProt Q86UP2 991-1357).
T1 sequence (looked up): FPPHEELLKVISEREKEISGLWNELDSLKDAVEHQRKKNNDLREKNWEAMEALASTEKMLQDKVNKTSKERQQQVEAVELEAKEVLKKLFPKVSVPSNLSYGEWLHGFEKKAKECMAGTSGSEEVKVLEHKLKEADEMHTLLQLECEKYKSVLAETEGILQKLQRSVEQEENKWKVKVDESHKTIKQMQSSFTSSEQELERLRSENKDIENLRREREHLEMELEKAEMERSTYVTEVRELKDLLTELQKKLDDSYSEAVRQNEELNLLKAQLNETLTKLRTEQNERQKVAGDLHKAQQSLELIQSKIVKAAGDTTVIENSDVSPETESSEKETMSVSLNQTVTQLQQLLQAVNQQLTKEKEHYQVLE
Nature of the test: SEC. On the technique in general: Size exclusion chromatography separates by hydrodynamic size, large species first.

Test [2] has as its target CDR2(1–146) (human, UniProt Q01850 1-146). Nature of the test: SEC.
Test [3] concerns the target T1, KTN1(991–1357). Nature of the test: pull-down.

Chain of CDR2(1–146) (Q01850 1-146): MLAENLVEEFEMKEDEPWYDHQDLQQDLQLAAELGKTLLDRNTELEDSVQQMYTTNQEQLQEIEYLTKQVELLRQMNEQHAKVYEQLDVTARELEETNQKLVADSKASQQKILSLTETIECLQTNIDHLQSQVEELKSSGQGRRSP

B1: GST::eEF1Bβ(30–66) (domain or fragment, human, UniProt P29692 30-66, looked up)
chain: {GST}-NGPVAGASRQENGASVILRDIARARENIQKSLAGSSG
As for B1, the binding result in test [1] is on record as “binds”.

B2: GST::DLIC1(388–523) (domain or fragment, human, UniProt Q9Y6G9 388-523, looked up)
chain: PTAAGRPVDASPRVPGGSPRTPNRSVSSNVASVSPIPAGSKKIDPNMKAGATSEGVLANFFNSLLSKKTGSPGGPGVSGGSPAGGAGGGSSGLPPSTKKSGQKPVLDVHAELDRITRKPVTVSPTTPTSPTEGEAS
On to B2, for which, in test [2], the binding result was “binds”.

B3: GST::CDR2(411–454) (domain or fragment, human, UniProt Q01850 411-454, looked up)
chain: EPVSSPTTPPEYKALFKEIFSCIKKTKQEIDEQRTKYRSLSSHS
Turning to B3, the binding result in test [1] was “binds”.

B4: GST::KIF5C(807–956) (domain or fragment)
chain: not shown
Consider B4, for which the binding result in test [3] is listed as “binds”.

These data come from paper PMC11580933 (bioRxiv, 2024).
